{"source": "paper PMC10641220", "about": "“Pseudomonas aeruginosa AlgF is a protein–protein interaction mediator required for acetylation of the alginate exopolysaccharide” (The Journal of Biological Chemistry, 2023)", "binders": {"B1": {"name": "AlgFPp^29-215 (domain or fragment, Pseudomonas putida KT2440, UniProt Q88ND4 29-215, looked up)", "chain": "DAALYGPSAPKGSTFVRLYNATSAPAAASVGNTQIKQVGAQASSDFSFLPGGDYTAQVGGKSVPVKLASDKYYTLVNSNSGSPKLIEEPPFKNKQKALVRVQNLSDQQLTLKTADGKTEVVKPVAANGRGEREINPVKVNLALYQGDKKVGDVKPVALERGEAAVLYVTGSGNALSPVWVTRPVASN", "notes": "the results text calls the construct 30-215; Cloned in pET28a with a 3' stop codon; also called AlgFPp^30-215; source: E. coli BL21 CodonPlus (λDE3), purified (Ni-NTA, Superdex 200 SEC)"}}, "key": {"AlgJPp^75-370": {"target": "T1, AlgJPp^75-370 (Pseudomonas putida, UniProt Q88ND3 75-370)", "T1 construct": "AlgJ of Pseudomonas putida, residues 75-370", "T1 sequence (looked up)": "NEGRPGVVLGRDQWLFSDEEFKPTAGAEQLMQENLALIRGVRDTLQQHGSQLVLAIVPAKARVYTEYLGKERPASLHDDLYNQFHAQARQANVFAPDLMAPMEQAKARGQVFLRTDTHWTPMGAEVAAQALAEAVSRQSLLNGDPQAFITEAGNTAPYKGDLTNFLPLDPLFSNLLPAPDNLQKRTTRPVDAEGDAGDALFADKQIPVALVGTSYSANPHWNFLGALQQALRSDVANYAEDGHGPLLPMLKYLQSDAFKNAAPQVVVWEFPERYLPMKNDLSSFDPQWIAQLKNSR", "assay": "ITC; MicroCal Auto-ITC200, 20 °C, 50 mM Tris pH 7.8, 150 mM NaCl, 2% glycerol, 50 mM arginine, 50 mM glutamic acid; 1.86 mM AlgJ (syringe) into 188 μM AlgF (cell); 4.17 mM AlgF (syringe) into 500 μM AlgX (cell); 2.97 mM AlgJ (syringe) into 170 μM AlgX (cell)", "conditions": "both partners purified"}, "AlgXPp": {"target": "T2, AlgXPp (Pseudomonas putida KT2440, UniProt Q88ND0 25-479)", "T2 construct": "AlgX of Pseudomonas putida KT2440, codon-optimized synthetic gene of full-length AlgXPp in pET24b; AlgX is a periplasmic protein", "T2 sequence (looked up)": "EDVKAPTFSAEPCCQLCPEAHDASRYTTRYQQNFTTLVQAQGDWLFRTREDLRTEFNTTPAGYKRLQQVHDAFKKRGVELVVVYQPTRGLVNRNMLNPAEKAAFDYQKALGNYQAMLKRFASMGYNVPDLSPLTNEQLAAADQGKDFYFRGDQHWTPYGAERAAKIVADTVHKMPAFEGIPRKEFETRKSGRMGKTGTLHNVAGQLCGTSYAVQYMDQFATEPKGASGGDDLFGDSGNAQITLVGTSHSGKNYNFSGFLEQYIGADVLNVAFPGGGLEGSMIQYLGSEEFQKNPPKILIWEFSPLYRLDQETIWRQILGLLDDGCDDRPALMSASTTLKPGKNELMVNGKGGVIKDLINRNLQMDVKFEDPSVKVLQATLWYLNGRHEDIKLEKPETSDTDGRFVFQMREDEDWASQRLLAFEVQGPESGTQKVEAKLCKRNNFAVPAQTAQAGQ", "assay": "ITC; MicroCal Auto-ITC200, 20 °C, 50 mM Tris pH 7.8, 150 mM NaCl, 2% glycerol, 50 mM arginine, 50 mM glutamic acid; 1.86 mM AlgJ (syringe) into 188 μM AlgF (cell); 4.17 mM AlgF (syringe) into 500 μM AlgX (cell); 2.97 mM AlgJ (syringe) into 170 μM AlgX (cell)", "conditions": "both partners purified"}}}
{"binder": "B1", "values": [{"measurement": "Kd", "setting": "AlgJPp^75-370", "value": "86 ± 12", "unit": "µM"}, {"measurement": "Kd", "setting": "AlgXPp", "value": "178 ± 5", "unit": "µM"}]}
